Experiments:
[1] = target: the molecule itself; experiment: SEC; Superdex 200 10/300 GL, AKTA FPLC, Storage Buffer (30 mM HEPES-KOH pH 7.6, 250 mM KCl, 0.25 mM EDTA, 2 mM dithiothreitol, 10% glycerol); purified recombinant protein; single peak read as tetramer
[2] = target: T1, SSBP1 WT (mtSSB) (human, UniProt Q04837 17-148); experiment: fluorescence anisotropy; 5 mM MgCl2; apparent Kd, protein as tetramer; 20 nM DNA; quadratic fit; 30 mM HEPES-KOH pH 7.6, 50 mM KCl, 2 mM DTT, 5 mM MgCl2, 20 nM FAM-oligonucleotide, 37 C; settings: protein: recombinant; chain copies: 4; label: 3' FAM (fluorescein); single strand
T1 sequence: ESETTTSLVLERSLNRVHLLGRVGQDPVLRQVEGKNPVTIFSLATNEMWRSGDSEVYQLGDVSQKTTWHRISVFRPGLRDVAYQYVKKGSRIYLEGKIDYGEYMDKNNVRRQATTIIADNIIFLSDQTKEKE

[3] = target: T2, SSBP1 p.E27K (human, UniProt Q04837 17-148, E27K); experiment: fluorescence anisotropy; 5 mM MgCl2; apparent Kd, protein as tetramer; 20 nM DNA; quadratic fit; plateau anisotropy about 1.4-fold higher than WT; 30 mM HEPES-KOH pH 7.6, 50 mM KCl, 2 mM DTT, 5 mM MgCl2, 20 nM FAM-oligonucleotide, 37 C; settings: protein: recombinant; chain copies: 4; label: 3' FAM (fluorescein); single strand
T2 sequence: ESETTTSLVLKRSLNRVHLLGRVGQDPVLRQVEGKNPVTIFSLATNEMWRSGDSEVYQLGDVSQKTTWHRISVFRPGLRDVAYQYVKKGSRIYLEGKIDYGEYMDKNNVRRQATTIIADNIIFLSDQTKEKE

B1: wild-type human mitochondrial single-stranded DNA-binding protein (SSBP1) (natural protein, UniProt Q04837 17-148, looked up)
chain: ESETTTSLVLERSLNRVHLLGRVGQDPVLRQVEGKNPVTIFSLATNEMWRSGDSEVYQLGDVSQKTTWHRISVFRPGLRDVAYQYVKKGSRIYLEGKIDYGEYMDKNNVRRQATTIIADNIIFLSDQTKEKE
notes: No tag is mentioned; also called WT SSBP1; HmtSSB; source: E. coli BL21(DE3), purified (Affi-Gel Blue, MonoQ, Superdex 200)
stoichiometry N [1]: 4

B2: p.E27K human mitochondrial single-stranded DNA-binding protein (SSBP1) (natural protein, UniProt Q04837 17-148, looked up)
chain: ESETTTSLVLKRSLNRVHLLGRVGQDPVLRQVEGKNPVTIFSLATNEMWRSGDSEVYQLGDVSQKTTWHRISVFRPGLRDVAYQYVKKGSRIYLEGKIDYGEYMDKNNVRRQATTIIADNIIFLSDQTKEKE
notes: Homotetramer of four mutant chains; The variant was found de novo in a patient; No tag is mentioned; also called p.E27K SSBP1; E27K SSBP1; source: E. coli BL21(DE3), purified (Affi-Gel Blue, MonoQ, Superdex 200)
stoichiometry N [1]: 4

AATGCTATCACTATTCGTAGACTTGACCACACCTTGTCAGCTCACGCTCC (ssDNA) [FAM-labeled 50 nt ssDNA]
Kd [2]: 2.3 nM
Kd [3]: 9.3 nM
